Experimental data from US20240117018A1.

Tests used:
Assay in all cases: cell-based or functional assay
[1] = biological target: HIV-1 Env of pseudovirus T257-31 (HIV-1)
[2] = biological target: HIV-1 Env of pseudovirus 9004SS_A3_4 (HIV-1)
[3] = biological target: HIV-1 Env of pseudovirus 928-28 (HIV-1)
[4] = biological target: HIV-1 Env of pseudovirus 191084 B7-19 (HIV-1)
[5] = biological target: HIV-1 Env of pseudovirus 191955_A11 (HIV-1)
[6] = biological target: HIV-1 Env of pseudovirus 3817.v2.c59 (HIV-1)
[7] = biological target: HIV-1 Env of pseudovirus 3103.v3.c10 (HIV-1)
[8] = biological target: HIV-1 Env of pseudovirus 3016.v5.c45 (HIV-1)
[9] = biological target: HIV-1 Env of pseudovirus 3301.v1.c24 (HIV-1)
[10] = biological target: HIV-1 Env of pseudovirus 6811.v7.c18 (HIV-1)
[11] = biological target: HIV-1 Env of pseudovirus T251-18 (HIV-1)
[12] = biological target: HIV-1 Env of pseudovirus BJOX015000.11.5 (HIV-1)
[13] = biological target: HIV-1 Env of pseudovirus 6545.v4.c1 (HIV-1)
[14] = biological target: HIV-1 Env of pseudovirus 231965.c01 (HIV-1)
[15] = biological target: HIV-1 Env of pseudovirus 235-47 (HIV-1)
[16] = biological target: HIV-1 Env of pseudovirus BJOX028000.10.3 (HIV-1)
[17] = biological target: HIV-1 Env of pseudovirus 6041.v3.c23 (HIV-1)
[18] = biological target: HIV-1 Env of pseudovirus C1080.c03 (HIV-1)
[19] = biological target: HIV-1 Env of pseudovirus BJOX009000.02.4 (HIV-1)
[20] = biological target: HIV-1 Env of pseudovirus 6540.v4.c1 (HIV-1)
[21] = biological target: HIV-1 Env of pseudovirus X1193_c1 (HIV-1)
[22] = biological target: HIV-1 Env of pseudovirus T255-34 (HIV-1)
[23] = biological target: HIV-1 Env of pseudovirus 231966.c02 (HIV-1)
[24] = biological target: HIV-1 Env of pseudovirus C4118.c09 (HIV-1)
[25] = biological target: HIV-1 Env of pseudovirus 89-F1_2_25 (HIV-1)
[26] = biological target: HIV-1 Env of pseudovirus C3347.c11 (HIV-1)
[27] = biological target: HIV-1 Env of pseudovirus BJOX025000.01.1 (HIV-1)
[28] = biological target: HIV-1 Env of pseudovirus 211-9 (HIV-1)
[29] = biological target: HIV-1 Env of pseudovirus R1166.c01 (HIV-1)
[30] = biological target: HIV-1 Env of pseudovirus X2131_C1_B5 (HIV-1)
[31] = biological target: HIV-1 Env of pseudovirus X1632_S2_B10 (HIV-1)
[32] = biological target: HIV-1 Env of pseudovirus R2184.c04 (HIV-1)
[33] = biological target: HIV-1 Env of pseudovirus P1981_C5_3 (HIV-1)
[34] = biological target: HIV-1 Env of pseudovirus 6952.v1.c20 (HIV-1)
[35] = biological target: HIV-1 Env of pseudovirus 620345.c01 (HIV-1)

NIH 45-46 (antibody)
IC50 [1]: 0.23 µg/mL | IC80 [1]: 1.11 µg/mL | IC50 [2]: 0.18 µg/mL | IC80 [2]: 0.65 µg/mL | IC50 [3]: 0.1 µg/mL | IC80 [3]: 0.39 µg/mL | IC50 [4]: 0.02 µg/mL | IC80 [4]: 0.07 µg/mL | IC50 [5]: 0.11 µg/mL | IC80 [5]: 0.43 µg/mL

PGT151 (antibody)
IC50 (Titer in TZM.bl cells) [6]: > 50 µg/mL | IC80 (Titer in TZM.bl cells) [6]: > 50 µg/mL | IC50 (Titer in TZM.bl cells) [7]: 0.014 µg/mL | IC80 (Titer in TZM.bl cells) [7]: 0.202 µg/mL | IC50 (Titer in TZM.bl cells) [8]: 0.174 µg/mL | IC80 (Titer in TZM.bl cells) [8]: 40.7 µg/mL | IC50 (Titer in TZM.bl cells) [9]: 0.002 µg/mL | IC80 (Titer in TZM.bl cells) [9]: 0.019 µg/mL | neutralization IC50 [1]: 0.003 µg/mL | neutralization IC80 [1]: 0.01 µg/mL | IC50 (Titer in TZM.bl cells) [10]: > 50 µg/mL | IC80 (Titer in TZM.bl cells) [10]: > 50 µg/mL | IC50 (Titer in TZM.bl cells) [11]: 0.327 µg/mL | IC80 (Titer in TZM.bl cells) [11]: > 50 µg/mL | IC50 (Titer in TZM.bl cells) [12]: > 50 µg/mL | IC80 (Titer in TZM.bl cells) [12]: > 50 µg/mL | IC50 (Titer in TZM.bl cells) [13]: 0.004 µg/mL | IC80 (Titer in TZM.bl cells) [13]: 0.026 µg/mL | IC50 (Titer in TZM.bl cells) [14]: < 0.001 µg/mL | IC80 (Titer in TZM.bl cells) [14]: 0.012 µg/mL | IC50 (Titer in TZM.bl cells) [15]: 38.1 µg/mL | IC80 (Titer in TZM.bl cells) [15]: > 50 µg/mL | IC50 (Titer in TZM.bl cells) [16]: > 50 µg/mL | IC80 (Titer in TZM.bl cells) [16]: > 50 µg/mL | neutralization IC50 [2]: 0.003 µg/mL | neutralization IC80 [2]: 0.015 µg/mL | IC50 (Titer in TZM.bl cells) [17]: 0.004 µg/mL | IC80 (Titer in TZM.bl cells) [17]: 0.024 µg/mL | IC50 (Titer in TZM.bl cells) [18]: > 50 µg/mL | IC80 (Titer in TZM.bl cells) [18]: > 50 µg/mL | neutralization IC50 [3]: > 50 µg/mL | neutralization IC80 [3]: > 50 µg/mL | IC50 (Titer in TZM.bl cells) [19]: > 50 µg/mL | IC80 (Titer in TZM.bl cells) [19]: > 50 µg/mL | IC50 (Titer in TZM.bl cells) [20]: 0.006 µg/mL | IC80 (Titer in TZM.bl cells) [20]: 0.03 µg/mL | neutralization IC50 [4]: 0.004 µg/mL | neutralization IC80 [4]: 0.016 µg/mL | IC50 (Titer in TZM.bl cells) [21]: 0.004 µg/mL | IC80 (Titer in TZM.bl cells) [21]: 0.027 µg/mL | IC50 (Titer in TZM.bl cells) [22]: 0.002 µg/mL | IC80 (Titer in TZM.bl cells) [22]: 0.01 µg/mL | IC50 (Titer in TZM.bl cells) [23]: 0.025 µg/mL | IC80 (Titer in TZM.bl cells) [23]: 0.183 µg/mL | IC50 (Titer in TZM.bl cells) [24]: > 50 µg/mL | IC80 (Titer in TZM.bl cells) [24]: > 50 µg/mL | IC50 (Titer in TZM.bl cells) [25]: 22.9 µg/mL | IC80 (Titer in TZM.bl cells) [25]: > 50 µg/mL | IC50 (Titer in TZM.bl cells) [26]: > 50 µg/mL | IC80 (Titer in TZM.bl cells) [26]: > 50 µg/mL | IC50 (Titer in TZM.bl cells) [27]: > 50 µg/mL | IC80 (Titer in TZM.bl cells) [27]: > 50 µg/mL | IC50 (Titer in TZM.bl cells) [28]: 0.002 µg/mL | IC80 (Titer in TZM.bl cells) [28]: 0.01 µg/mL | IC50 (Titer in TZM.bl cells) [29]: > 50 µg/mL | IC80 (Titer in TZM.bl cells) [29]: > 50 µg/mL | IC50 (Titer in TZM.bl cells) [30]: 0.007 µg/mL | IC80 (Titer in TZM.bl cells) [30]: 0.036 µg/mL | IC50 (Titer in TZM.bl cells) [31]: 0.061 µg/mL | IC80 (Titer in TZM.bl cells) [31]: > 50 µg/mL | IC50 (Titer in TZM.bl cells) [32]: > 50 µg/mL | IC80 (Titer in TZM.bl cells) [32]: > 50 µg/mL | IC50 (Titer in TZM.bl cells) [33]: 0.021 µg/mL | IC80 (Titer in TZM.bl cells) [33]: > 50 µg/mL | neutralization IC50 [5]: 0.004 µg/mL | neutralization IC80 [5]: 0.014 µg/mL | IC50 (Titer in TZM.bl cells) [34]: 49.2 µg/mL | IC80 (Titer in TZM.bl cells) [34]: > 50 µg/mL | IC50 (Titer in TZM.bl cells) [35]: > 50 µg/mL | IC80 (Titer in TZM.bl cells) [35]: > 50 µg/mL

VRC07 (antibody)
IC50 [1]: 0.421 µg/mL | IC80 [1]: 3.17 µg/mL | IC50 [2]: 0.218 µg/mL | IC80 [2]: 0.75 µg/mL | IC50 [3]: 0.278 µg/mL | IC80 [3]: 0.957 µg/mL | IC50 [4]: 0.061 µg/mL | IC80 [4]: 0.209 µg/mL | IC50 [5]: 0.978 µg/mL | IC80 [5]: 4.82 µg/mL
